Measured values as given in a protein production outcome set (Wang et al. 2014).

assay: label from the status in PepcDB records

| Sequence | protein production |
| --- | --- |
| NSGKRLIQRSIERALDFRKEVQRLREESDGWFFDIWQPEAVDKAECWPVAPGEDWHGFKDADADHMYLDPVKVTILTPGMDEQGNMDEEGIPAALVAKFLDERGVVVEKTGPYNLLFLFSIGIDKTRAMGLLRGLTEFKRAYDLNLRVKNMLPDLYAEDPDFYRNMRIQDLAQGIHRLIRQHQ | failed |
| NTLRELRLFLRDVTKRLATDKRFNIFSKPVSDYLEVIKEPMDLSTVITKIDKHNYLTAKDFLKDIDLICSNALEYNPDKDPGDKIIRHRACTLKDTAHAIIAAELDPEFNKLCEEIKE | not failed |
| PATCPIVPGQEMIIEISKGRSGLGLSIVGGKDTPLNAIVIHEVYEEGAAARDGRLWAGDQILEVNGVDLRNSSHEEAITALRQTPQKVRLVVYRDEAHYRDEE | not failed |
| PCYDNTFANTCAECQQLIGHDSRELFYEDRHFHEGCFRCCRCQRSLADEPFTCQDSELLCNDCYCSAFS | not failed |
| PDQCKPPQVTCRSATCAQVNWEVPLSNGTDVTEYRLEWGGVEGSMQICYCGPGLSYEIKGLSPATTYYCRVQALSVVGAGPFSEVVACVTPPS | not failed |
| PEAMLIVDQNGQIVFSNSRCQQLFGYDAKAMLALQIETLLPEELRHLHTGERLDFLREGRDRPMASARHVRALKSDGGEFVAEIALSILPSDFD | failed |
| PEQLRSTVRIGTIDSIVQAWLPRFIERVRELYPGLTLDLNVDTSRGIAREIVERKIDLALLMGPVLEAGLRNVDLGSMDCAWVAAPGFGLGGRRIGLADLVDLPILTFSRNSDPHVWLMRQFEELRLPQPAISNSNSLSAML | failed |
| PFMDQSGGGVTFCGGEPLLHPEFLIDILKRCGQQGIHRAVDTTLLARKETVDEVMRNCELLLIDLKSMDSTVHQTFCDVPNELILKNIRRVAEADFPYYIRIPLIEGVNADEKNIKLSAEFLASLPRHPEIINLLPYHDIGKGKHAKLGSIYNPKGYKMQTPSEEVQQQCIQILTDYGLKATIGG | not failed |
| PGRPTMMISTTAMNTALLQWHPPKELPGELLGYRLQYCRADEARPNTIDFGKDDQHFTVTGLHKGTTYIFRLAAKNRAGLGEEFEKEIRTPEDL | not failed |
| PHRAVVNFLLSMTNQPGINAGDRLLAVTSISFDISVLELFLPLISGASLVLADSEAAADGQALIKLAMHQDVTFIQATPSNYWLMLEAGWPSTLKLKVLCGGEALPPVLAQKLLQRSDSVWNMYGPTETTIWSAISRVTGSASTLGRP | failed |
| PIIFVPGIMGSRLKFAKGKKQGTRAWDPDSSGFMFLNYGRFDVSAKKKKALLVGPEFDPDYLEVDTNNPKLDKSFLRRYPRADKRGWGGVMWGSYGPILRALHDHQWEEPVGHCFEFPVHAFGYNWTASNMEAGRKLKEYIGATIDHYAKGLRDEAGRPLERLCTRVILVTHSMGGLVARSACVLHGAAEKVLGVVHGVQPATGSPAAYWRMK | failed |
| PISRLAQIQQARKEKEPDYILLSERGMPRRREFVMQVKVGNEVATGTGPNKKIAKKNAAEAMLLQLGYKASTSLQD | not failed |
| PKKPGTGKHIVYFPGANTYYQACFRDISTACKETGATVHAFNFPGTGLSSGKVREANDLINAGISVVSSLIKQGVHPDDIILQGDCYGASIALEVKKQLEDQ | failed |
| PKPLKNLDGQFCEICGDQIGLTVEGDLFVACNECGFPACRPCYEYERREGTQNCPQCKTRYKRLRGSPRVEGDEDEEDID | not failed |
| PKSQACEPSEPEIEIKLPKLRTLDVFSGCGGLSEGFHQAGISDTLWAIEMWDPAAQAFRLNNPGSTVFTEDCNILLKLVMAGETTNSRGQRLPQKGDVEMLCGGPPCQGFSGMNRFNSRTYSKFKNSLVVSFLSYCDYYRPRFFLLENVRNFVSFKRSMVLKLTLRCLVRMGYQCTFGVLQAGQYGVAQTRRRAIILAAAPGEKLPLFPEPLHVFAPRACQLSVVVDDKKFVSNITRLSSGPFRTITVRDTMSDLPEVRNGASALEISYNGEPQSWFQRQLRGAQYQPILRDHICKDMSALVAARMRHIPLAPGSDWRDLPNIEVRLSDGTMARKLRYTHHDRKNGRSSSGALRGVCSCVEAGKACDPAARQFNTLIPWCLPHTGNRHNHWAGLYGRLEWDGFFSTTVTNPEPMGKQGRVLHPEQHRVVSVRECARSQGFPDTYRLFGNILDKHRQVGNAVPPPLAKAIGLEIKLCML | failed |
| PLKEQKVINTANITTNSKLDLAEYENGLMNIAKEQFDTENHVLQLNQYIPEKLVDELVAKVKAPVLTNIIEQDYFGKQNSNELSLSGVMIGLAMSSSVSNEEAMSKGTEVANQLIEAIHKNDKYNKSPITFAIFKQESTSSLKNGTYIASATVQKNDTNIGNWNAIEEKAYSYPSDEFTQAHGEDNTKIDDFAKEMKGFSPGDFIPVNAKVSYKKNQMDTLNMNIVIKYNGKTELMALTQLAAQIMLEQLPKDAKVQLQIKSENKIEAIVIKEKNSDKPFV | not failed |
| PLKEQKVINTANITTNSKLDLAEYENGLMNIAKEQFDTENHVLQLNQYIPEKLVDELVAKVKAPVLTNIIEQDYFGKQNSNELSLSGVMIGLAMSSSVSNEEAMSKGTEVANQLIEAIHKNDKYNKSPITFAIFKQESTSSLKNGTYIASATVQKNDTNIGNWNAIEEKAYSYPSDEFTQAHGEDNTKIDDFAKEMKGFSPGDFIPVNAKVSYKKNQMDTLNMNIVIKYNGKTELMALTQLAAQIMLEQLPKDAKVQLQIKSENKIEAIVIKEKNSDKPFVSFL | not failed |
| PNRRADDNATIRVTNLSEDTRETDLQELFRPFGSISRIYLAKDKTTGQSKGFAFISFHRREDAARAIAGVSGFGYDHLILNVEWAKPSTN | not failed |
| PPLEINSRVSLKVGETIESGTVIFCDVLPGKESLGYFVGVDMDNPIGNWDGRFDGVQLCSFACVESTILLHINDIIPES | not failed |
| PPPAPIPDLKVFEREGVQLNLSFIRPPENPALLLITITATNFSEGDVTHFICQAAVPKSLQLQLQAPSGNTVPARGGLPITQLFRILNPNKAPLRLKLRLTYDHFHQSVQEIFEVNNLPVESWQ | not failed |
| PQEKLKLLAFTGTKGKTTAAYFAYHMLKESYKPAMFSTMNTTLDGKTFFKSQLTTPESLDLFAMMAECVTNGMTHLIMEVSSQAYLVDRVYGLTFDVGVFLNISPDHIGPIEHPTFEDYFYHKRLLMENSRAVVINSGMDHFSFLADQVADQEHVFYGPLSDNQITTSQAFSFEAKGQLAGHYDIQLIGHFNQENAMAAGLACLRLGASLADIQKGIAKTRVPGR | failed |
| PQLVRTHEDVPGPVGHLSFSEILDTSLKVSWQEPGEKNGILTGYRISWEEYNRTNTRVTHYLPNVTLEYRVTGLTALTTYTIEVAAMTSKGQGQVSASTISSGVPP | not failed |
| PRSRTKISLEALGILQSFIHDVGLYPDQEAIHTLSAQLDLPKHTIIKFFQNQRYHVKH | not failed |
| PRWSVAAATAVTDFCDRLACDRVALGRRHRRRSKVVSLSHSGNFQRSSELVQRIADAMDEAIDQGEPIRMPQDSDNTLTLTAAHQELIHSGVPRAVLTVLLRRDGRVTGAMVLERGGNNPFRDEEVELVEAVAGILGPVLEEKRLNDR | failed |
| PSFNLGYIGLNNRNEYLKNPKVRQAISMAINRRAVVDAFWSGLGRTDTSIVPPALGWATSSKVPADYKFDPAAAKKLLAEAGYPNGFTLDFWYMPITRSYFPQPKASAEAMAADLADVGIKVNLKTEDWAKYLDDLFAGRLSMFQIGLIGDYGDPDYFYGALYNPTSTNDIGWNAPAELDTLLQQARSGLTRQARAQAYARIHELTYNAGYRIPLVHSQ | failed |
| PSGATGKDGLAIPVGKDTAKSSLTVWEDFRCPACKIFETTYRPTLHELVGAGKLKIDYHLVTIIDDGRGGSGSRQAANAAACAQDAGKFTAYHDVLYDNQPDETVDSFADDSKLIELAGKVDGLDTPAFRKCVKDGTHNSWVVKSNAAFDSGGFKGTPTVLFGGKNLAADPTMTPAKLKQMVEAANK | failed |
| PSGFPQNLHVTGLTTSTTELAWDPPVLAERNGRIISYTVVFRDINSQQELQNITTDTRFTLTGLKPDTTYDIKVRAWTSKGSGPLSPSIQSRTMPV | not failed |
| PSNAMKQAWLQISQDNKLMSCNDTSKANALLDMVTQGLNPAKNQCYFIPYGNKMQLQRSYHGNVMMLKRDAGAQDVVAQVIYKGDTFKQEMGETGRIKAIKHEQDFFNIDKENIIGAYCTIVFNDGRDNYIEVMTIEQIKQAWMQSSMIKDEKALQNSKTHNNFKEEMAKKTVINRAAKRYINTSTDSNLFKYAQESEQRQRKEVLDAEVEENANQE | not failed |
| PSPGGQMHAGISSFQQSNSSGTYGPQMSQYGPQGNYSRPPAYSGVPSASYSGPGPGMGISANNQMHGQGPSQPCGAVPLGRMPSAGMQNRPFPGNMSSMTPSSPGMSQQGGPGMGPPMPTVNRKAQEAAAAVMQAAANSAQSRQGSFPGMNQSGLMASSSPYSQPMNNSSSLMNTQAPPYSMAPAMVNSSAASVGLADMMSPGESKLPLPLKADGKEEGTPQPESKSKDSYSSQGISQPPTPGNLPVPSPMSPSSASISSFHGDESDSISSPGWPKTPSSPKSSSSTTTGEKITKVYELGNEPERKLWVDRYLTFMEERGSPVSSLPAVGKKPLDLFRLYVCVKEIGGLAQVNKNKKWRELATNLNVGTSSSAASSLKKQYIQYLFAFECKIERGEEPPPEVFSTGDTKKQPKLQPPSPANSGSLQGPQTPQSTGSNSMAEVPGDLKPPTPASTPHGQMTPMQGGRSSTISVHDPFSDVSDSSFPKRNSMTPNAPYQQGMSMPDVMGRMPYEPNKDPFGGMRKVPGSSEPFMTQGQMPNSSMQDMYNQSPSGAMSNLGMGQRQQFPYGASYDRRHEPYGQQYPGQGPPSGQPPYGGHQPGLYPQQPNYKRHMDGMYGPPAKRHEGDMYNMQYSSQQQEMYNQYGGSYSGPDRRPIQGQYPYPYSRERMQGPGQIQTHGIPLQMMGGPLQSSSSEGPQQNMWAARNDMPYPYQNRQGPGGPTQAPPYPGMNRTDDMMVPDQRINHESQWPSHVSQRQPYMSSSASMQPITRPPQPSYQTPPSLPNHISRAPSPASFQRSLENRMSPSKSPFLPSMKMQKVMPTVPTSQVTGPPPQPPPIRREITFPPGSVEASQPVLKQRRKITSKDIVTPEAWRVMMSLKSGLLAESTWALDTINILLYDDSTVATFNLSQLSGFLELLVEYFRKCLIDIFGILMEYEVGDPSQKALDHNAARKDDSQSLADDSGKEEEDAECIDDDEEDEEDEEEDSEKTESDEKSSIALTAPDAAADPKEKPKQASKFDKLPIKIVKKNNLFVVDRSDKLGRVQEFNSGLLHWQLGGGDTTEHIQTHFESKMEIPPRRRPPPPLSSAGRKKEQEGKGDSEEQQEKSIIATIDDVLSARPGALPEDANPGPQTESSKFPFGIQQAKSHRNIKLLEDEPRSRDETPLCTIAHWQDSLAKRCICVSNIVRSLSFVPGNDAEMSKHPGLVLILGKLILLHHEHPERKRAPQTYEKEEDEDKGVACSKDEWWWDCLEVLRDNTLVTLANISGQLDLSAYTESICLPILDGLLHWMVCPSAEAQDPFPTVGPNSVLSPQRLVLETLCKLSIQDNNVDLILATPPFSRQEKFYATLVRYVGDRKNPVCREMSMALLSNLAQGDALAARAIAVQKGSIGNLISFLEDGVTMAQYQQSQHNLMHMQPPPLEPPSVDMMCRAAKALLAMARVDENRSEFLLHEGRLLDISISAVLNSLVASVICDVLFQIGQL | not failed |
